For 5 molecules, OD450 results are on record in patent publication US20250250357A1 (NANJING ZAIMING PHARMACEUTICAL, published 2025).

Test [1] concerns the target T1, human MSLN-R3-his protein (human, UniProt Q13421 487-598).
T1 construct: Region 3 of human mesothelin, made in HEK293E cells, His-tagged; also called human MSLN-R3 protein; hMSLN-R3-his; not shown: His tag
In words: ELISA on coated MSLN-R3; no antibody (blank). For orientation: ELISA stands for enzyme-linked immunosorbent assay.

In test [2] the target is T2, human MSLN-R2-his protein (human, UniProt Q13421 391-486).
T2 construct: Region 2 of human mesothelin, made in HEK293E cells, His-tagged; also called human MSLN-R2 protein; hMSLN-R2-his; not shown: His tag
The test is described as follows: ELISA on coated MSLN-R2; antibody 10 nM.

Test [3] deals with T2, human MSLN-R2-his protein. In words: ELISA on coated MSLN-R2; no antibody (blank).
Test [4] deals with T3, human MSLN-R1-his protein (human, UniProt Q13421 296-390).
T3 construct: Region 1 of human mesothelin, made in HEK293E cells, His-tagged; also called human MSLN-R1 protein; hMSLN-R1-his; not shown: His tag
T3 chain: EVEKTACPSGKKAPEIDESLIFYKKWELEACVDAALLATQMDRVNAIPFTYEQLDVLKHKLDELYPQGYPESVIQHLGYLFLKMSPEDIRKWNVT
The test is described as follows: ELISA on coated MSLN-R1; antibody 1 nM.

For test [5], the target named is T3, human MSLN-R1-his protein. The test is described as follows: ELISA on coated MSLN-R1; antibody 0.01 nM.
Method: (§1) The plate was sealed with a plastic film and incubated at 4° C. overnight. The next day, the plate was washed twice with PBST, and a blocking buffer [PBS+2% (w/w) BSA] was added for blocking at room temperature for 2 h. The blocking buffer was discarded, and a chimeric antibody or negative control antibody serially diluted from 100 nM was added at 50 μL/well. After incubation at 37° C. for 2 h, the plate was washed 3 times with PBST. […] After incubation at 37° C. for 2 h, the plate was washed 5 times with PBST. A TMB substrate was added at 50 μL/well for incubation at room temperature for 5-10 min, and then a stop solution (1.0 N HCl) was added at 50 μL/well.
Test [6] concerns the target T3, human MSLN-R1-his protein. In words: ELISA on coated MSLN-R1; antibody 10 nM.
The target in test [7] is T1, human MSLN-R3-his protein. In words: ELISA on coated MSLN-R3; antibody 0.1 nM.
Method: as §1
For test [8], the target named is T2, human MSLN-R2-his protein. In words: ELISA on coated MSLN-R2; antibody 0.001 nM.
The target of test [9] is T1, human MSLN-R3-his protein. In words: ELISA on coated MSLN-R3; antibody 1 nM.
Method: as §1
The target in test [10] is T2, human MSLN-R2-his protein. The test is described as follows: ELISA on coated MSLN-R2; antibody 0.1 nM.
Method: as §1
The target of test [11] is T3, human MSLN-R1-his protein. The test is described as follows: ELISA on coated MSLN-R1; antibody 100 nM.
Method: as §1
In test [12] the target is T3, human MSLN-R1-his protein. In words: ELISA on coated MSLN-R1; antibody 0.1 nM.
Method: as §1
The target in test [13] is T3, human MSLN-R1-his protein. The test is described as follows: ELISA on coated MSLN-R1; antibody 0.001 nM.
Method: as §1
Test [14] has as its target T1, human MSLN-R3-his protein. In words: ELISA on coated MSLN-R3; antibody 0.0001 nM.
Method: as §1
For test [15], the target named is T2, human MSLN-R2-his protein. In words: ELISA on coated MSLN-R2; antibody 1 nM.
Method: as §1
For test [16], the target named is T1, human MSLN-R3-his protein. In words: ELISA on coated MSLN-R3; antibody 0.001 nM.
Method: as §1
Test [17] deals with T1, human MSLN-R3-his protein. The test is described as follows: ELISA on coated MSLN-R3; antibody 10 nM.
For test [18], the target named is T1, human MSLN-R3-his protein. The test is described as follows: ELISA on coated MSLN-R3; antibody 0.01 nM.
The target in test [19] is T2, human MSLN-R2-his protein. In words: ELISA on coated MSLN-R2; antibody 100 nM.
Method: as §1
In test [20] the target is T3, human MSLN-R1-his protein. The test is described as follows: ELISA on coated MSLN-R1; antibody 0.0001 nM.
Test [21] addresses T2, human MSLN-R2-his protein. In words: ELISA on coated MSLN-R2; antibody 0.01 nM.
The target in test [22] is T3, human MSLN-R1-his protein. In words: ELISA on coated MSLN-R1; no antibody (blank).
In test [23] the target is T2, human MSLN-R2-his protein. The test is described as follows: ELISA on coated MSLN-R2; antibody 0.0001 nM.
Test [24] has as its target T1, human MSLN-R3-his protein. The test is described as follows: ELISA on coated MSLN-R3; antibody 100 nM.
Method: as §1

T1 sequence (Q13421 495-606): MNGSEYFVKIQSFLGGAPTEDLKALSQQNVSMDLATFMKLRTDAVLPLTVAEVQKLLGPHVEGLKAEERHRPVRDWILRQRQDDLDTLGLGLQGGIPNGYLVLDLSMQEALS
T2 sequence (Q13421 other isoform, or with tags, fused parts or gaps): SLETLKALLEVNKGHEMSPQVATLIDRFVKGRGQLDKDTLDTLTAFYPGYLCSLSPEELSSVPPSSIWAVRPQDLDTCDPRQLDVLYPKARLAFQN

B1: S009-F8-29.1 (antibody, human IgG1, kappa, V domains shown)
VH: QVQLQQSGAELARPGASVKMSCKASGYTFISYTMHWVKQRPGQGLEWIGYINPSSGYTKYNQKFKDKATLTADKSSSTAYMQLNSLTSEDSAVYYCARYYSNPDYYAMDYWGQGTSVTVSS
VL: QIVLTQSPAIMSASPGEKVTITCSASSSVSYMHWFQQKPGTSPKLWIYSTSNLASGVPARFSGSGSGTSYSLTISRMEAEDAATYYCQQRSSYPLTFGGGTKLELKR
In the case of B1, the OD450 in test [1], in test [2], in test [3], in test [4], in [5] and in test [6] was 0.04 OD450 in each case. Moreover, the OD450 was determined as 0.04 OD450 in test [7]; 0.04 OD450 in test [8]; 0.06 OD450 in [9]; 0.04 OD450 in test [10]; 0.05 OD450 in test [11]; 0.04 OD450 in [12]. For the same molecule, the OD450 came to 0.04 OD450 in test [13]; 0.06 OD450 in [14]; 0.04 OD450 in [15]; 0.15 OD450 in [16]; 0.06 OD450 in test [17]; 0.04 OD450 in [18]. In addition, the OD450 was found to be 0.06 OD450 in test [19]; 0.04 OD450 in test [20]; 0.04 OD450 in test [21]; 0.04 OD450 in [22]; 0.05 OD450 in test [23]; 0.1 OD450 in [24].

B2: S009-F8-27.1 (antibody, human IgG1, kappa, V domains shown)
VH: EVQLVESGGGLVKPGGSLKLSCAASGFTFSSYAMSWVRQTPEKRLEWVATISDGGNYTYYPDNVKGRFTISRDNAKNNLYLQMSHLKSEDTAMYYCAGDRGYPYAMDSWGQGTSVTVSS
VL: NIMMTQSPSSLAVSAGEKVTMSCKSSQSVLYSSNQKNYLAWYQQKPGQSPKLLIYWASTRESGVPDRFTGSGSGTDFTLTISNVHAEDLAVYYCHQYLSSLTFGAGTKLELKR
Turning to B2, the OD450 worked out at 0.05 OD450 in test [1]; 0.05 OD450 in test [2]; 0.05 OD450 in test [3]; 0.05 OD450 in [4]; 0.04 OD450 in test [5]; 0.08 OD450 in [6]. Besides, the OD450 in test [7] was determined as 0.07 OD450; in test [8] it was 0.05 OD450; in [9], 0.04 OD450; in test [10], 0.04 OD450; in [11], 0.35 OD450; in test [12], 0.05 OD450. The OD450 was found to be 0.04 OD450 in test [13]; 0.04 OD450 in [14]; 0.05 OD450 in [15]; 0.05 OD450 in test [16]; 0.05 OD450 in test [17]; 0.04 OD450 in [18]. The OD450 in test [19] was determined as 0.05 OD450; in test [20] it was 0.04 OD450; in [21], 0.04 OD450; in [22], 0.05 OD450; in test [23] it was 0.04 OD450; in [24], 0.06 OD450.

B3: S009-F8-28.23 (antibody, human IgG1, kappa, V domains shown)
VH: EVQLVESGGDLVKPGGSLKLSCAASGFTFSSYAMSWVRQTPEKRLEWVATISDGGSYTYYPDNVEGRFTISRDNAKNNLYLQMSHLKSEDTAMYYCAGDRGYSYALDYWGQGTSVTVSS
VL: NIMMTQSPSSLAVSAGEKVTMSCKSSQSVLYSSNQKNYLAWYQQKPGQSPKLLIYWASTRESGVPDRFTGSGSGTDFTLTISSVQAEDLAVYYCHQYLSSLTFGAGTKLELKR
B3: the OD450 in [1], in [2], in test [3], in test [4], in test [5] and in test [6] was 0.04 OD450 throughout. The OD450 in [7] was 0.04 OD450; in test [8], 0.04 OD450; in test [9] it was 0.04 OD450; in test [10], 0.04 OD450; in test [11] it was 0.05 OD450; in test [12], 0.04 OD450. In addition, the OD450 was found to be 0.05 OD450 in test [13]; 0.04 OD450 in test [14]; 0.04 OD450 in test [15]; 0.04 OD450 in [16]; 0.05 OD450 in test [17]; 0.07 OD450 in test [18]. The OD450 was found to be 0.05 OD450 in test [19]; 0.04 OD450 in test [20]; 0.04 OD450 in test [21]; 0.04 OD450 in test [22]; 0.04 OD450 in [23]; 0.07 OD450 in test [24].

B4: S009-F8-32.3 (antibody, human IgG1, kappa, V domains shown)
VH: QVQLKESGPGLVAPSQSLSITCTVSGFSLSSYAISWVRQPPGKGLEWLGVIWTGGGTNYNSALKSRLSISKDNSKSQVFLKMNSLQTDDTARFYCARNNYGRLDYAMDYWGQGTSVTVSS
VL: DVVMTQTPLSLPVSLGDQASISCRSSQSLVHGNGNTYLHWYLQKPGQSPKLLIYKVSNRFSGVPDRFSGSGSGTDFTLKISRVETEDLGVYFCSQSTHVPFTFGSGTKLEIKR
Turning to B4, the OD450 in [1] came to 0.04 OD450; in test [2], 0.05 OD450; in test [3], 0.04 OD450; in test [4] it was 2.6 OD450; in test [5] it was 0.42 OD450; in test [6], 2.79 OD450. The OD450 in [7] was found to be 0.04 OD450; in [8] it was 0.04 OD450; in test [9], 0.04 OD450; in test [10], 0.04 OD450; in test [11], 2.81 OD450; in [12], 1.64 OD450. The OD450 in [13] turned out to be 0.11 OD450; in test [14], 0.04 OD450; in [15], 0.04 OD450; in test [16], 0.04 OD450; in test [17], 0.04 OD450; in [18], 0.04 OD450. Moreover, the OD450 was found to be 0.07 OD450 in [19]; 0.06 OD450 in test [20]; 0.04 OD450 in test [21]; 0.04 OD450 in test [22]; 0.04 OD450 in [23]; 0.07 OD450 in [24].

B5: S009-F8-31.22 (antibody, human IgG1, kappa, V domains shown)
VH: EVQLVESGGDLVKPGGSLKLSCAASGFTFSTYGMSWVRQTPDKRLEWVATISSGGSYTYYPDSLKGRFTISRDNAKNTLYLQMSSLKSEDTAMYYCARHEGYYYGKDYWGQGTTLTVSS
VL: DIVLTQSPATLSVTPGDSVSLSCRASHSISNNLHWYQQKSHESPRLLIKYASQSISGIPSKFSGSGSGTDFTLSINSVETEDFGMYFCQQTNSWPLTFGAGTKLELKR
Turning to B5, the OD450 was determined as 0.05 OD450 in test [1]; 0.05 OD450 in test [2]; 0.05 OD450 in [3]; 2.05 OD450 in test [4]; 0.8 OD450 in [5]; 2.17 OD450 in test [6]. In addition, the OD450 came out at 0.04 OD450 in [7]; 0.04 OD450 in [8]; 0.05 OD450 in [9]; 0.05 OD450 in [10]; 2.12 OD450 in test [11]; 1.95 OD450 in test [12]. For the same molecule, the OD450 in [13] is 0.19 OD450; in test [14], 0.04 OD450; in [15] it was 0.04 OD450; in [16] it was 0.04 OD450; in test [17] it was 0.07 OD450; in [18], 0.04 OD450. The OD450 in [19] turned out to be 0.08 OD450; in test [20], 0.08 OD450; in test [21], 0.04 OD450; in test [22] it was 0.05 OD450; in test [23] it was 0.05 OD450; in [24] it was 0.13 OD450.
